{
  "source": "patent US20210115424A1",
  "about": "(University of California, published 2021)",
  "proteins": {"B1": {"name": "SrtA^2M N228A variant (protein)", "chain": "NNARQARVAQSYENSYEVDSPAVRDSVLEAARQYNTSVVGFPILGPGLNRASKNSGPYLDYLQQLNPQRAERPVIASISIPTIDAHLPIYHGTDTATLEHGLGHLYGSALPVGGTGTHPVITGHSGLANATLFDNLEDVKEHDPIYITVQGETLKYEVDAINVVLPEDTKLLAPDPNKDQITLITCTPYAVASHRLLVRAHRVDLDPNDPNLTQTGTKIWQ"}, "B2": {"name": "SrtA^2M S229A variant (protein)", "chain": "B1 chain with A192N, S193A"}, "B3": {"name": "SrtA^2M N165A variant (protein)", "chain": "B1 chain with N129A, A192N"}, "B4": {"name": "CdSrtA^3M (CdSrtA D81G/W83G/N85A triple mutant) (protein)", "chain": "B1 chain with N49A, A192N"}, "B5": {"name": "Staphylococcus aureus sortase A, wild type (protein)", "chain": "QAKPQIPKDKSKVAGYIEIPDADIKEPVYPGPATPEQLNRGVSFAEENESLDDQNISIAGHTFIDRPNYQFTNLKAAKKGSMVYFKVGNETRKYKMTSIRDVKPTDVGVLDEQKGKDKQLTLITCDDYNEKTGVWEKRKIFVATEVK"}, "B6": {"name": "Corynebacterium diphtheriae pilus-specific sortase SrtA, soluble catalytic domain fragment (residues 37-257), SrtA^WT (enzyme)", "chain": "B1 chain with G45D, G47W, A192N", "notes": "The His6-SUMO or His/TEV tag was removed after purification; also called CdSrtA^WT; Cd-SrtA"}, "B7": {"name": "Staphylococcus aureus sortase A improved variant 4M (P94S/D160N/D165A/K196T) (protein)", "chain": "B5 chain with P35S, D101N, D106A, K137T"}, "B8": {"name": "CdSrtA^Δ (CdSrtA active truncated variant with nine lid residues … deleted) (protein)", "chain": "NNARQARVAQSYENSYEVDSPAVRDSVLEAARQYNTSVVGFPSKNSGPYLDYLQQLNPQRAERPVIASISIPTIDAHLPIYHGTDTATLEHGLGHLYGSALPVGGTGTHPVITGHSGLANATLFDNLEDVKEHDPIYITVQGETLKYEVDAINVVLPEDTKLLAPDPNKDQITLITCTPYAVNSHRLLVRAHRVDLDPNDPNLTQTGTKIWQ"}, "B9": {"name": "SrtA^2M (residues 37-257 of CdSrtA with D81G/W83G lid mutations) (protein)", "chain": "B1 chain with A192N"}, "B10": {"name": "ΔSrtA^2M (SrtA^2M with the H1 helix, residues 37-54, removed) (protein)", "chain": "DSPAVRDSVLEAARQYNTSVVGFPILGPGLNRASKNSGPYLDYLQQLNPQRAERPVIASISIPTIDAHLPIYHGTDTATLEHGLGHLYGSALPVGGTGTHPVITGHSGLANATLFDNLEDVKEHDPIYITVQGETLKYEVDAINVVLPEDTKLLAPDPNKDQITLITCTPYAVNSHRLLVRAHRVDLDPNDPNLTQTGTKIWQ"}, "B11": {"name": "SrtA^2M Y225A variant (protein)", "chain": "B1 chain with Y189A, A192N"}},
  "key": {"[1]": {"biological_target": "^NSpaA, N-terminal domain of SpaA (residues 30-194) containing the pilin motif with K190"}, "[2]": {"biological_target": "T1, SpaA derived sorting signal peptide KNAGFELPLTGGSGRI", "T1 chain": "KNAGFELPLTGGSGRI"}, "[3]": {"biological_target": "^CSpaA, C-terminal domain of SpaA (residues 350-500) containing the LPLTG sorting signal"}, "[4]": {"biological_target": "sorting signal peptide (quantitative HPLC assay of Table 2)"}, "[5]": {"biological_target": "T2, LPATG peptide KNAGFELPATGGSGRI", "T2 chain": "KNAGFELPATGGSGRI"}, "[6]": {"biological_target": "T3, pilin motif peptide DGWLQDVHVYPKHQALS", "T3 chain": "DGWLQDVHVYPKHQALS"}, "[7]": {"biological_target": "the molecule itself", "assay": "X-ray crystallography (homodimer in the crystal)"}, "[8]": {"biological_target": "SpaA, soluble form (residues 30-500) lacking the N-terminal signal peptide and C-terminal membrane anchor domain"}},
  "note": "Positions count from the first letter of the chain named. In names and notes the source's numbering stands.",
  "data": [
    {"protein": "B1", "values": [
      {"measurement": "transpeptidation in vitro (ligation of ^NSpaA and ^CSpaA, SDS-PAGE)", "setting": "[1]", "result": "defective in transpeptidation in vitro, as no isopeptide linked SpaA-SpaA product was produced even after 48 hours"},
      {"measurement": "hydrolysis of SpaApep (HPLC-based assay, SrtA^2M set as 100%)", "setting": "[2]", "result": "none of the mutants exhibited any significant defect in cleaving the LPXTG (SEQ ID NO. 5) motif"}
    ]},
    {"protein": "B2", "values": [
      {"measurement": "transpeptidation in vitro (ligation of ^NSpaA and ^CSpaA, SDS-PAGE)", "setting": "[1]", "result": "defective in transpeptidation in vitro, as no isopeptide linked SpaA-SpaA product was produced even after 48 hours"},
      {"measurement": "hydrolysis of SpaApep (HPLC-based assay, SrtA^2M set as 100%)", "setting": "[2]", "result": "none of the mutants exhibited any significant defect in cleaving the LPXTG (SEQ ID NO. 5) motif"}
    ]},
    {"protein": "B3", "values": [
      {"measurement": "transpeptidation in vitro (ligation of ^NSpaA and ^CSpaA, SDS-PAGE)", "setting": "[1]", "result": "this mutant retained near wild-type activity"},
      {"measurement": "hydrolysis of SpaApep (HPLC-based assay, SrtA^2M set as 100%)", "setting": "[2]", "result": "none of the mutants exhibited any significant defect in cleaving the LPXTG (SEQ ID NO. 5) motif"}
    ]},
    {"protein": "B4", "values": [
      {"measurement": "cross-linked ^NSpaAx^CSpaA product after 24 hour incubation, relative to CdSrtA^2M (gel densitometry)", "setting": "[3]", "result": "35% more product than CdSrtA^2M"},
      {"measurement": "cross-linked ^NSpaAx^CSpaA product after 24 hour incubation, relative to CdSrtA^WT (gel densitometry)", "setting": "[3]", "result": "10.6-fold more cross-linked ^NSpaAx^CSpaA product than CdSrtA^WT"},
      {"measurement": "labeling of ^NSpaA with the sorting signal peptide (MALDI-MS)", "setting": "[1]", "result": ">95% of ^NSpaA is labeled with the peptide"},
      {"measurement": "Km (M) × 10^-4", "setting": "[4]", "result": "8e-05", "unit": "M"},
      {"measurement": "Vmax (s^-1) × 10^-9", "setting": "[4]", "result": "1.4e-09", "unit": "s⁻¹"},
      {"measurement": "kcat (s^-1) × 10^-5", "setting": "[4]", "result": "5.7e-05", "unit": "s⁻¹"},
      {"measurement": "kcat/kM", "setting": "[4]", "result": 0.7, "unit": "M⁻¹ s⁻¹"},
      {"measurement": "HPLC-based sorting signal cleavage assay", "setting": "[2]", "result": "the CdSrtA^3M triple mutant exhibits the highest level of activity in a HPLC-based sorting signal cleavage assay"},
      {"measurement": "hydrolysis of LPATG peptide (HPLC)", "setting": "[5]", "result": "CdSrtA^3M is unable to process any significant amount of peptide"},
      {"measurement": "ligation of the pilin motif peptide to ^CSpaA or to the sorting signal peptide (MALDI-MS)", "setting": "[6]", "result": "In both instances, no detectable product was observed"}
    ]},
    {"protein": "B5", "values": [
      {"measurement": "hydrolysis of LPATG peptide (HPLC)", "setting": "[5]", "result": "SaSrtA robustly hydrolyzes the LPATG (SEQ ID NO. 5) peptide, as expected"}
    ]},
    {"protein": "B6", "values": [
      {"measurement": "binding result", "setting": "[7]", "result": "binds"},
      {"measurement": "Vmax of hydrolysis kinetics (HPLC-based assay, SpaApep cleavage)", "setting": "[2]", "result": 5.5, "unit": "µM/h"}
    ]},
    {"protein": "B7", "values": [
      {"measurement": "hydrolysis of LPATG peptide (HPLC)", "setting": "[5]", "result": "almost entirely hydrolyzes the full length peptide after 24 hrs"}
    ]},
    {"protein": "B8", "values": [
      {"measurement": "Km (M) × 10^-4", "setting": "[4]", "result": 0.00016, "unit": "M"},
      {"measurement": "Vmax (s^-1) × 10^-9", "setting": "[4]", "result": "1e-08", "unit": "s⁻¹"},
      {"measurement": "kcat (s^-1) × 10^-5", "setting": "[4]", "result": 0.0004, "unit": "s⁻¹"},
      {"measurement": "kcat/kM", "setting": "[4]", "result": 2.5, "unit": "M⁻¹ s⁻¹"}
    ]},
    {"protein": "B9", "values": [
      {"measurement": "Vmax of hydrolysis kinetics (HPLC-based assay, SpaApep cleavage)", "setting": "[2]", "result": 6.3, "unit": "µM/h"}
    ]},
    {"protein": "B10", "values": [
      {"measurement": "in vitro SpaA pilus polymerization (SDS-PAGE)", "setting": "[8]", "result": "the removal of the H1 helix in the SrtA^2M enzyme also abrogates pilus polymerization"},
      {"measurement": "Vmax of hydrolysis kinetics (HPLC-based assay, SpaApep cleavage)", "setting": "[2]", "result": 6.3, "unit": "µM/h"}
    ]},
    {"protein": "B11", "values": [
      {"measurement": "transpeptidation in vitro (ligation of ^NSpaA and ^CSpaA, SDS-PAGE)", "setting": "[1]", "result": "had impaired transpeptidation activity as well, but to a lesser extent than the S229A and N228A mutants"},
      {"measurement": "hydrolysis of SpaApep (HPLC-based assay, SrtA^2M set as 100%)", "setting": "[2]", "result": "none of the mutants exhibited any significant defect in cleaving the LPXTG (SEQ ID NO. 5) motif"}
    ]}
  ]
}
